Patent publication US20220098305A1 (Hoffmann-La Roche, published 2022)
Where two headings read alike, the source gives them in different places.

How the values were obtained:
human FAP [1] = target: T1, human FAP (human, UniProt Q12884 1-760); test: flow cytometry on NIH/3T3-huFAP clone 19 cells, MFI on single cells
T1 construct: also called hu FAP
Protocol: (§1) Briefly, suspension cells were harvested, counted, checked for viability and re-suspended at 1 million cells per ml in FACS buffer (PBS with 0.1% BSA). […] The staining was fixed for 20 min at 4° C. in the dark, using 75 μl of 1% PFA in FACS buffer per well.

murine ICOS = target: T2, murine ICOS (murine, UniProt Q9WVS0 21-200); test: flow cytometry, % positive cells; murine ICOS on recombinant CHO cells according to the legend, on pre-activated murine splenocytes according to the example
T2 sequence: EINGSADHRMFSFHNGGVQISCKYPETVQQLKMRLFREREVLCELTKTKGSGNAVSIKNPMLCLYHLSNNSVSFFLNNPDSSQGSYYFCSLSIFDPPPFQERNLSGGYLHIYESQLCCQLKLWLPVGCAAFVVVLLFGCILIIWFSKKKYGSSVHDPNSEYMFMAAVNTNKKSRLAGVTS

human FAP [2] = target: T1, human FAP; test: flow cytometry on NIH/3T3-huFAP clone 19 cells, AF647-labelled anti-human Fc secondary antibody, MFI
Protocol: as §1
(§2) Fluorescence was analyzed by FACS using a FACS Fortessa (Software FACS Diva). Binding curves and EC₅₀ values were obtained using GraphPadPrism 7.

murine FAP [3] = target: T3, murine FAP (murine, UniProt P97321 26-761, limits assumed); test: flow cytometry, % positive cells; cells bearing murine FAP not given
T3 construct: also called mouse FAP

murine FAP [4] = target: T3, murine FAP; test: flow cytometry, cells carrying murine FAP not told
human ICOS [5] = target: T4, human ICOS (human, UniProt Q9Y6W8 21-199); test: flow cytometry, pre-activated human PBMCs, CD4+ subset
T4 construct: The cell that carries it is named under assay; also called huICOS; CD278
T4 sequence: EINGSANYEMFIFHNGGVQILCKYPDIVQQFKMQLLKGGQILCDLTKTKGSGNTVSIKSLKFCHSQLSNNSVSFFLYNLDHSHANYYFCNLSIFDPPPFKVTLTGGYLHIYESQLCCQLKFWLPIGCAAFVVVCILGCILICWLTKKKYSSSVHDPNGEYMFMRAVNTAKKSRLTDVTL
Protocol: as §1
(§3) Briefly, Peripheral blood mononuclear cells (PBMCs) were prepared by Histopaque (Sigma-Aldrich, Cat No. 10771-500ML Histopaque-1077) density centrifugation of enriched lymphocyte preparations of heparinized blood obtained from a Buffy Coat (“Blutspende Zürich”). The blood was diluted 1:2 with sterile DPBS and layered over Histopaque gradient (Sigma, #H8889). After centrifugation (450×g, 30 minutes, room temperature), the plasma above the PBMC-containing interphase was discarded and PBMCs transferred in a new falcon tube subsequently filled with 50 ml of PBS. The mixture was centrifuged (400×g, 10 minutes, room temperature), the supernatant discarded and the PBMC pellet washed twice with sterile PBS (centrifugation steps 350×g, 10 minutes). The resulting PBMC population was counted automatically (Cedex HiRes) and stored in RPMI1640 medium containing 10% FCS and 1% Glutamax (Gibco 35050061). […] After incubation the PBMCs were used for a subsequent binding experiment, as described above.

human ICOS [6] = target: T4, human ICOS; test: flow cytometry, pre-activated human PBMCs, CD8+ subset
Protocol: as §1, §3

cynomolgus ICOS = target: T5, cynomolgus ICOS (cynomolgus, UniProt Q9Y6W8 21-195 (human entry)); test: flow cytometry on cynomolgus PBMCs activated 48 h with CD3/CD28 beads, CD4+ subset, MFI
T5 chain: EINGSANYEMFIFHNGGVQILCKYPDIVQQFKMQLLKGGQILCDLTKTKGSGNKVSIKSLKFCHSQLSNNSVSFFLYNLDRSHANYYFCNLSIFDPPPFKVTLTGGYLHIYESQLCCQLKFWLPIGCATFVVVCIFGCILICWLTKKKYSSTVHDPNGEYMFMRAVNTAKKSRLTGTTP

human FAP [7] = target: T1, human FAP; test: flow cytometry, NIH/3T3-huFAP clone 19 cells
Protocol: as §1, §2

human FAP [8] = target: T1, human FAP; test: flow cytometry, NIH/3T3-huFAP clone 19 cells; remark: listed apart in the source
human ICOS [9] = target: T4, human ICOS; test: flow cytometry, CHO cells expressing human ICOS
Protocol: as §1, §2

B1: Molecule 10, bispecific monovalent anti-ICOS (1167)/anti-FAP (4B9) huIgG1 P329GLALA kih antibody (1+1) (bispecific antibody)
heavy 1: EIVLTQSPGTLSLSPGERATLSCRASQSVTSSYLAWYQQKPGQAPRLLINVGSRRATGIPDRFSGSGSGTDFTLTISRLEPEDFAVYYCQQGIMLPPTFGQGTKVEIKSSASTKGPSVFPLAPSSKSTSGGTAALGCLVKDYFPEPVTVSWNSGALTSGVHTFPAVLQSSGLYSLSSVVTVPSSSLGTQTYICNVNHKPSNTKVDKKVEPKSCDKTHTCPPCPAPEAAGGPSVFLFPPKPKDTLMISRTPEVTCVVVDVSHEDPEVKFNWYVDGVEVHNAKTKPREEQYNSTYRVVSVLTVLHQDWLNGKEYKCKVSNKALGAPIEKTISKAKGQPREPQVCTLPPSRDELTKNQVSLSCAVKGFYPSDIAVEWESNGQPENNYKTTPPVLDSDGSFFLVSKLTVDKSRWQQGNVFSCSVMHEALHNHYTQKSLSLSP
light 1: EVQLLESGGGLVQPGGSLRLSCAASGFTFSSYAMSWVRQAPGKGLEWVSAIIGSGASTYYADSVKGRFTISRDNSKNTLYLQMNSLRAEDTAVYYCAKGWFGGFNYWGQGTLVTVSSASVAAPSVFIFPPSDEQLKSGTASVVCLLNNFYPREAKVQWKVDNALQSGNSQESVTEQDSKDSTYSLSSTLTLSKADYEKHKVYACEVTHQGLSSPVTKSFNRGEC
heavy 2: not shown
light 2: DIQMTQSPSSVSASVGDRVTITCRASQGINNFLAWYQQKPGKAPKLLIYDASSLQSGVPSRFAGSGSGTDFTLTISSLQPEDFATYYCQQYNFYPLTFGGGTMVEIKRTVAAPSVFIFPPSDRKLKSGTASVVCLLNNFYPREAKVQWKVDNALQSGNSQESVTEQDSKDSTYSLSSTLTLSKADYEKHKVYACEVTHQGLSSPVTKSFNRGEC
notes: CrossFab (VLCH1/VHCL) on the FAP arm; also called FAP-ICOS (1+1)
- EC50 (read off the curve) (human FAP [1]): ~2 nM
- binding result (murine ICOS): binds
- EC50 (read off the curve) (human FAP [2]): ~1 nM
- EC50 (read off the curve) (murine FAP [3]): ~0.2 nM
- EC50 (murine FAP [4]): 0.177 nM
- EC50 (human ICOS [5]): ~58 nM
- EC50 (human ICOS [6]): ~124 nM
- binding result (cynomolgus ICOS): binds
- EC50 (human FAP [7]): 1.4 nM
- EC50 (human FAP [8]): 1.54 nM
- EC50 (human ICOS [9]): 41.7 nM

B2: Molecule 11, bispecific 1+1 head-to-tail anti-ICOS (1167)/anti-FAP (4B9) huIgG1 P329GLALA kih antibody (bispecific antibody)
heavy 1: DKTHTCPPCPAPEAAGGPSVFLFPPKPKDTLMISRTPEVTCVVVDVSHEDPEVKFNWYVDGVEVHNAKTKPREEQYNSTYRVVSVLTVLHQDWLNGKEYKCKVSNKALGAPIEKTISKAKGQPREPQVCTLPPSRDELTKNQVSLSCAVKGFYPSDIAVEWESNGQPENNYKTTPPVLDSDGSFFLVSKLTVDKSRWQQGNVFSCSVMHEALHNHYTQKSLSLSPGGGGGSGGGGSGGGGSGGGGSEIVLTQSPGTLSLSPGERATLSCRASQSVTSSYLAWYQQKPGQAPRLLINVGSRRATGIPDRFSGSGSGTDFTLTISRLEPEDFAVYYCQQGIMLPPTFGQGTKVEIK
heavy 2: not shown
light: DIQMTQSPSSVSASVGDRVTITCRASQGINNFLAWYQQKPGKAPKLLIYDASSLQSGVPSRFAGSGSGTDFTLTISSLQPEDFATYYCQQYNFYPLTFGGGTMVEIKRTVAAPSVFIFPPSDRKLKSGTASVVCLLNNFYPREAKVQWKVDNALQSGNSQESVTEQDSKDSTYSLSSTLTLSKADYEKHKVYACEVTHQGLSSPVTKSFNRGEC
notes: names and VH/VL of 4B9 are swapped; also called 1+1_HT; FAP-ICOS (HT)
- binding result (murine ICOS): binds
- EC50 (read off the curve) (human FAP [2]): ~1 nM
- EC50 (read off the curve) (murine FAP [3]): ~0.4 nM
- EC50 (murine FAP [4]): 0.413 nM
- binding result (cynomolgus ICOS): binds
- EC50 (human FAP [7]): 1.15 nM
- EC50 (human ICOS [9]): 4.17 nM

B3: Molecule 12, bispecific 2+1 anti-ICOS (1167)/anti-FAP (4B9) Crossfab-IgG P329G LALA (bispecific antibody)
heavy 1: EVRLLESGGGLVQPGGSLRLSCAASGFTFNTYAVHWVRQAPGKGLEWVSGIGGSGVRTYYADSVKGRLTISRDNSKNTLYLQMNSLRAEDTAIYFCAKDIYVADFTGYAFDIWGQGTMVTVSSASTKGPSVFPLAPSSKSTSGGTAALGCLVEDYFPEPVTVSWNSGALTSGVHTFPAVLQSSGLYSLSSVVTVPSSSLGTQTYICNVNHKPSNTKVDEKVEPKSCDKTHTCPPCPAPEAAGGPSVFLFPPKPKDTLMISRTPEVTCVVVDVSHEDPEVKFNWYVDGVEVHNAKTKPREEQYNSTYRVVSVLTVLHQDWLNGKEYKCKVSNKALGAPIEKTISKAKGQPREPQVCTLPPSRDELTKNQVSLSCAVKGFYPSDIAVEWESNGQPENNYKTTPPVLDSDGSFFLVSKLTVDKSRWQQGNVFSCSVMHEALHNHYTQKSLSLSP
light 1: DIQMTQSPSSVSASVGDRVTITCRASQGINNFLAWYQQKPGKAPKLLIYDASSLQSGVPSRFAGSGSGTDFTLTISSLQPEDFATYYCQQYNFYPLTFGGGTMVEIKRTVAAPSVFIFPPSDRKLKSGTASVVCLLNNFYPREAKVQWKVDNALQSGNSQESVTEQDSKDSTYSLSSTLTLSKADYEKHKVYACEVTHQGLSSPVTKSFNRGEC
heavy 2: not shown
light 2: EVQLLESGGGLVQPGGSLRLSCAASGFTFSSYAMSWVRQAPGKGLEWVSAIIGSGASTYYADSVKGRFTISRDNSKNTLYLQMNSLRAEDTAVYYCAKGWFGGFNYWGQGTLVTVSSASVAAPSVFIFPPSDEQLKSGTASVVCLLNNFYPREAKVQWKVDNALQSGNSQESVTEQDSKDSTYSLSSTLTLSKADYEKHKVYACEVTHQGLSSPVTKSFNRGEC
- EC50 (read off the curve) (human FAP [1]): ~2 nM
- EC50 (human ICOS [5]): ~12.6 nM
- EC50 (human ICOS [6]): ~12.6 nM
- EC50 (human FAP [8]): 1.82 nM
